Results on 1 molecule are retold here after patent US10385103B2, “Cell-permeable (ICP)-SOCS3 recombinant protein and uses thereof” (CELLIVERY THERAPEUTICS, INC., priority 2014, dated 2019).

One assay deals with NIH3T3 cells. The assay is described as follows: Intracellular delivery and localization of FITC-labeled SOCS3 recombinant proteins (confocal microscopy). Format: cell-based, mouse. The note with it: 10 μM FITC-labeled SOCS3 protein, 1 hour, 37° C. The procedure: To examine cell-permeability of SOCS3 recombinant protein, SOCS3 recombinant proteins were conjugated to 5/6-fluorescein isothiocyanate (FITC). RAW 264.7 (KCLB, Seoul, South Korea) (FIG. 20) or NIH3T3 cells (KCLB, Seoul, South Korea) (FIG. 21) were treated with 10 μM FITC-labeled SOCS3 recombinant proteins and cultivated for 1 hr at 37° C.
After cultivation, the cells were washed three times with ice-cold PBS (Phosphate-buffered saline, Hyclone, USA) and treated with proteinase K (10 μg/mL, SIGMA, USA) to remove surface-bound proteins, and internalized proteins were measured by flow cytometry (FlowJo cytometric analysis software, Guava, Millipore, Darmstadt, Germany). Untreated cells (gray) and equimolar concentration of unconjugated FITC (FITC only, green)-treated cells were served as control (FIG. 20). Each of NIH3T3 cells was incubated for 1 hour at 37° C. with 10 μM FITC-labeled SOCS3 protein. For nuclear staining, a mixture of […] Mounting Medium (Vector laboratories, Burlingame, Calif.) and DAPI (4′,6-diamidino-2-phenylindole) was added to NIH3T3 cells, and visualized using a confocal laser microscope (LSM700, Zeiss, Germany) (FIG. 21).

The subject of the next assay is PANC-1 cells. As to the kind of experiment: Apoptotic cell analysis by TUNEL assay in pancreatic carcinoma cells. The note with it: PANC-1, 10 uM. Type of assay: cell-based. The procedure:
PANC-1 cells (pancreatic carcinoma cell line) were seeded in a 16-well chamber slide at a density of 5×10^3 cells/well, and then treated with 10 uM of aMTD/SD-fused SOCS3 for 24 hours. Apoptotic cells were analyzed using terminal dUTP nick-end labeling (TUNEL) assay with In Situ Cell Death Detection kit TMR red (Roche, 4056 Basel, Switzerland). Cells were treated with either 10 μM SOCS3 recombinant protein or buffer alone for 16 hrs with 2% fetal bovine serum (Hyclone, Logan, Utah, USA). Treated cells were washed with cold PBS two times, fixed in 4% paraformaldehyde (PFA, Junsei, Tokyo, Japan) for 1 hr at room temperature, and incubated in 0.1% Triton X-100 for 2 min on the ice. Cells were washed with cold PBS twice, and treated TUNEL reaction mixture for 1 hr at 37° C. in dark, washed cold PBS three times and observed by fluorescence microscopy (Nikon, Tokyo, Japan).

Another assay concerns AGS cells. The assay is described as follows: Induction of apoptosis by Annexin V/7-AAD staining in gastric carcinoma cells. Format: cell-based. The note with it: 10 uM, 14 hours. How it is done: AGS cells (gastric carcinoma cell line) (American Type Culture Collection; ATCC) were seeded in a 12-well plate at a density of 1×10^5 cells/well, and then treated with 10 uM of aMTD/SD-fused SOCS3 for 14 hours. Cancer cell death was analyzed by Annexin V analysis. Annexin V/7-Aminoactinomycin D (7-AAD) staining was performed using flow cytometry according to the manufacturer's guidelines (BD Pharmingen, San Diego, Calif., USA). Briefly, cells were washed three times with ice-cold PBS. The cells were then resuspended in 100 μl of binding buffer and incubated with 1 μl of 7-AAD and 1 μl of annexin V-PE for 30 min in the dark at 37° C. Flow cytometric analysis was immediately performed using a guava easyCyte™ 8 Instrument (Merck Millipore, Darmstadt, Germany).

In the next assay the test system is STAT3. The assay is described as follows: Cell-to-cell function: phospho-STAT3 in PANC-1 cells seeded with protein-treated RAW 264.7 cells (western blot). The note with it: RAW 264.7 treated with 5 μM protein 2 hour, seeded on PANC-1, 20 ng/ml IFN-γ 15 minutes. Type of assay: cell-based. The procedure:
For this, RAW 264.7 cells were treated with 5 μM of FITC-labeled HM165S3B, HTS3B for 2 hour and washed with PBS two times. Thereafter, they were seeded on PANC-1 cell, incubated for 2 hours and treated with 20 ng/ml of IFN-γ for 15 minutes, followed by Western blotting in the same manner as in Example 8-1. And Cell-to-cell protein transfer was assessed by flow cytometry.

The next assay deals with Chang liver cells. The assay is described as follows: Wound cell migration assay. Type of assay: cell-based, human. The note with it: 10 μM 2 hrs, additional 24-72 hrs. The procedure: (§1) Cells were seeded into 12-well plates, grown to 90% confluence, and incubated with 10 μM Non-CP-SOCS3 (HS3B), iCP-SOCS3 (HM165S3B) in serum-free medium for 2 hrs prior to changing the growth medium (recommended medium by the supplier). The cells were washed twice with PBS, and the monolayer at the center of the well was “wounded” by scraping with a pipette tip. Cells were cultured for an additional 24-72 hrs and cell migration was observed by phase contrast microscopy (Nikon, ECLIPSE Ts2). The migration was quantified by counting the number of cells that migrated from the wound edge into the clear area.

The test system of assay [1] is HepG2 cells. As to the kind of experiment: Wound cell migration assay. Format: cell-based, human. The note with it: 10 μM 2 hrs, additional 24-72 hrs. How it is done: as §1
The subject of a further assay is Huh-7 cells. The assay is described as follows: Wound cell migration assay. Format: cell-based, human. The note with it: 10 μM 2 hrs, additional 24-72 hrs. The procedure: as §1
Assay [2] concerns HepG2 cells. As to the kind of experiment: Invasion assay (matrigel-coated Transwell). Type of assay: cell-based, human. The note with it: 24 hrs, compared with the control proteins. The procedure: The lower surface of Transwell inserts (Costar) was coated with 0.1% gelatin, the upper surface of Transwell inserts was coated with matrigel (40 μg per well; BD Pharmingen, San Diego, Calif., USA), and the membranes were allowed to dry for 1 hr at room temperature. The Transwell inserts were assembled into a 24-well plate, and the lower chamber was filled with growth media containing 10% FBS and FGF2 (40 ng/ml). Cells (5×10^5) were added to each upper chamber, and the plate was incubated at 37° C. in a 5% CO2 incubator for 24 hrs. Migrated cells were stained with 0.6% hematoxylin and 0.5% eosin and counted.

A further assay relates to normal cells. As to the kind of experiment: Inhibition of cell cycle progression (PI staining, flow cytometry). The note with it: 10 uM, 8 hrs. Format: cell-based. The procedure: HCCs and normal cells were treated with 10 uM protein (Non-CP-SOCS3 (HS3B) and iCP-SOSC3 (HM165S3B)) for 8 hrs. After the treatment, cells were washed twice with cold PBS and re-suspended in 1 ml cold PBS, fixed in cold 70% ethanol, washed with cold PBS twice and re-suspended in PI master mix (PI 10 ug/ml (SIGMA, USA), 50 ug/ml RNase A (Invitrogen, USA) in staining buffer) at a final cell density of 2×10^5 cell/ml. The cell mixtures were incubated 30 min in the dark at 4° C. Flow cytometric analysis was immediately performed using a guava easyCyte™ 8 Instrument (Merck Millipore, Darmstadt, Germany).
(In flow cytometry, cells or beads pass a laser one at a time.)

The test system of another assay is HepG2 tumor. The assay is described as follows: Anti-tumor activity in cell-derived xenograft model. The note with it: for inhibition on the tumor size: observation 3 weeks.

Entries after “also recorded” stand apart in the source; their conditions may differ.

Protocol for HepG2 tumor: Female Balb/c^nu/nu mice (5-week-old, Doo-Yeol Biotech Co. Ltd. Korea) were subcutaneously implanted with Hep3B2.1-7 tumor block (1 mm^3) into the left back side of the mouse. […] Tumor size was monitored by measuring the longest (length) and shortest dimensions (width) once a day with a dial caliper, and tumor volume was calculated as width2×length×0.5.
Then, tumor volumes were examined. […] Then, tumor volumes were examined.

B1: HM165S3B: His-tagged recombinant protein of aMTD165, human SOCS3 and solubilization domain B; prototype improved cell-permeable SOCS3 (protein)
chain: MGSSHHHHHHSSGLVPRGSHMALAVPVALAIVPVTHSKFPAAGMETSRPLDTSLRLKTFSSKSEYQLVVNAVRKLQESGFYWSAVTGGEANLLLSAEPAGTFLIRDSSDQRHFFTLSVKTQSGTKNLRIQCEGGSFSLQSDPRSTQPVPRFDCVLKLVHHYMETPPPGAPSFPSPPTEPSSEVPEQPSAQPLPGSPPRRAYYIYSGGEKIPLVLSRPLSSNVATLQHLCRKTVNGHLDSYEKVTQLPGPIREFLDQYDAPLGSMAEQSDKDVKYYTLEEIQKHKDSKSTWVILHHKVYDLTKFLEEHPGGEEVLGEQAGGDATENFEDVGHSTDARELSKTYIIGELHPDDRSKIAKPSETL
modifications: Amino acid sequence of HM165S3B
Regarding B1, the “intracellular delivery and localization” value with NIH3T3 cells is “localized to various extents in cytoplasm; also recorded: displayed more uniform cellular distribution”. Besides, in the assay on PANC-1 cells, the “induction of cell death (TUNEL)” value is reported as “induced death of the largest number of cancer cells”. Further, the “induction of apoptosis (Annexin V)” value is “showed high anticancer efficacy; also recorded: effects of inducing apoptosis” in the assay on AGS cells and “induced death of the largest number of cancer cells” in the assay on AGS cells (listed as aMTD165-fused SOCS3 recombinant protein). Moreover, the “phospho-STAT3 (cell-to-cell function)” value with STAT3 is given as “reduced”. For the same molecule, the “wound cell migration, normal Chang liver cells” value in the assay with Chang liver cells is recorded as “had no effect on the cell migration”. Also, the “wound cell migration, HepG2” value in the assay on HepG2 cells [1] was “suppressed the repopulation of wounded monolayer”. Also, in the assay with Huh-7 cells, the “wound cell migration, Huh-7” value was “suppressed the repopulation of wounded monolayer”. Further, in the assay with HepG2 cells [2], the “invasion, HepG2” value was “remarkable decrease in invasion”. In addition, the “cell cycle progression in normal cells” value in the assay on normal cells is “did not inhibit cell cycle progression”. For the same molecule, the “tumor growth inhibition at day 42” value in the assay with HepG2 tumor (IV 600 μg/head for 21 days, 3 weeks after termination) is listed as 67%. Moreover, the “inhibition on the tumor size” value in the assay on HepG2 tumor (IV 25 mg/kg every day for 3 weeks) came to 60%; with HepG2 tumor (IV 50 mg/kg every day for 3 weeks), 76%; with HepG2 tumor (IV 50 mg/kg three times a week for 3 weeks) it was 66%.
